For 3 sequences, Kd results are on record in the supplement of paper PMC6379048.

What all share (assay): Kd (EC50 corrected by depletion factor)
One series addresses GPATCH11 (UniProt Q8N954). In a few lines: (§1)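 To obtain EC50, data were fitted with a four-parameter log-logistic model; Kd was then EC50 multiplied by a protein-dependent depletion factor. Beforehand, free RNA oligos (0 nM to 30 μM) were pre-incubated with HEK293-FT lysate (2.5 mg protein/well) for 1 h at 4°C. The lysate then spent 30 min at 4°C with the same 5′-amino-C6 oligos coupled to NHS-Sepharose beads, and bound proteins were quantified by label-free LC-MS/MS, normalised to the control.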

The next series deals with T1, PABPN1 (UniProt Q86U42).
T1 sequence: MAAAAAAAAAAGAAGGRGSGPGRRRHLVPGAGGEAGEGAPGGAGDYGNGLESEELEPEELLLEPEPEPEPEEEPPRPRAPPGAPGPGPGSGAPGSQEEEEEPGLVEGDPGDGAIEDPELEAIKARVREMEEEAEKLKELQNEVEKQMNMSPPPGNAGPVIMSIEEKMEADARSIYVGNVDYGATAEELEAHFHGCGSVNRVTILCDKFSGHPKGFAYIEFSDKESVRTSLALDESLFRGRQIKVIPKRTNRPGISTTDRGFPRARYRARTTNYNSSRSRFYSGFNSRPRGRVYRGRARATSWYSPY
Put shortly:
as §1

Another series deals with T2, TIAL1 (UniProt Q01085).
T2 sequence: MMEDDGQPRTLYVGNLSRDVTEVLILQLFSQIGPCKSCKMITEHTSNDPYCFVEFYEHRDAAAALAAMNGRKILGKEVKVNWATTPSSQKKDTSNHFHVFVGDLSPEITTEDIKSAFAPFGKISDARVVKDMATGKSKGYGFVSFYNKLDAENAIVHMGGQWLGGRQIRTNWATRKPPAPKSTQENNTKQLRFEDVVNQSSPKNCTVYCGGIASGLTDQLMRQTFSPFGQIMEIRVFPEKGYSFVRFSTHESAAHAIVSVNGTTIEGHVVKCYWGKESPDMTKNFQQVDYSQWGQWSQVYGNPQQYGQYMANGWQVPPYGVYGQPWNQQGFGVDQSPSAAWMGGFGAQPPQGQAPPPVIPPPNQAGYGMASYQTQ
In a few lines:
as §1

Another series deals with T3, ZRANB2 (UniProt O95218).
T3 sequence: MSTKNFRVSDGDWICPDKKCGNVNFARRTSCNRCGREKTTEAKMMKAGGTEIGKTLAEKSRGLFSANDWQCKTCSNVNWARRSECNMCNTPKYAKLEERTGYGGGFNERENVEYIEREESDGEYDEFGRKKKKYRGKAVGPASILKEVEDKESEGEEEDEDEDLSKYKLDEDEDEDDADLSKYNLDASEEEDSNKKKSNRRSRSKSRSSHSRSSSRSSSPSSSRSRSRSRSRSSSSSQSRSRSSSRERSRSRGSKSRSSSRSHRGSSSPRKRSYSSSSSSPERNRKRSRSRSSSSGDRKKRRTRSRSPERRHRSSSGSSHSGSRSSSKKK
Put shortly:
as §1

Another series has as its target MRPL1 (UniProt Q9BYD6). In a few lines: as §1
The target of another series is MRPL11 (UniProt Q9Y3B7). Put shortly: as §1
The next series addresses RPS5 (UniProt P46782). In a few lines:
as §1

Another series has as its target MRPS28 (UniProt Q9Y2Q9). Put shortly: as §1
Another series concerns the target PPIE (UniProt Q9UNP9). Put shortly:
as §1

A further series concerns the target T4, TRIM56 (UniProt Q9BRZ2).
T4 sequence: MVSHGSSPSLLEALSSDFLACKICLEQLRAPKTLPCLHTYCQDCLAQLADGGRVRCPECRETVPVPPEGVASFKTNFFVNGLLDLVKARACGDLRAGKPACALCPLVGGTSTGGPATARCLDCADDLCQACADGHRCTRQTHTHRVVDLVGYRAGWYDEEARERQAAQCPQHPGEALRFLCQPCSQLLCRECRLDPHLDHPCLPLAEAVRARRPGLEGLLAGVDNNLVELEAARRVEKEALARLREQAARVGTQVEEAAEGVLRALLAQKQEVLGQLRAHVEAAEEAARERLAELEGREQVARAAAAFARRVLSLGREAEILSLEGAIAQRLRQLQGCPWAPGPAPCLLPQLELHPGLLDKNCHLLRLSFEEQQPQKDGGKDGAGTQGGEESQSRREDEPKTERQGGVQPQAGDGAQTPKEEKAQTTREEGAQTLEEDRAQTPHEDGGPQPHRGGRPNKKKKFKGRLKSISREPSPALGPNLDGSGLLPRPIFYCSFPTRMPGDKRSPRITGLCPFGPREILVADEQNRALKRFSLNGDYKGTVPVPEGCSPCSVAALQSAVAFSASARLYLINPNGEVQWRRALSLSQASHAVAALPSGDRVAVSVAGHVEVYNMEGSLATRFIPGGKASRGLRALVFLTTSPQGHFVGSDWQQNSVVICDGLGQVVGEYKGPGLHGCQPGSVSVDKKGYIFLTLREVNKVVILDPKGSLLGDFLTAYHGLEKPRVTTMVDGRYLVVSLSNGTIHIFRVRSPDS
In a few lines: as §1

PPIE, sequence (Q9UNP9 whole entry): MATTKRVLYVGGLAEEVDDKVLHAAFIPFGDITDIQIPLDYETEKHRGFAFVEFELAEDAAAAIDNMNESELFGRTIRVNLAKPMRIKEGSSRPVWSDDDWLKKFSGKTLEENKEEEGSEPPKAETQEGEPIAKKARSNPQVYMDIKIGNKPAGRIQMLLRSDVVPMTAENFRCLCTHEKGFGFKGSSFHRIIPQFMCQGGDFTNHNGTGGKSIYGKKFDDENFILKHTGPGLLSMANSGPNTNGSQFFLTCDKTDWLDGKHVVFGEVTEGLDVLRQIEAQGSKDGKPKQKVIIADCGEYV
GPATCH11, sequence (Q8N954 whole entry): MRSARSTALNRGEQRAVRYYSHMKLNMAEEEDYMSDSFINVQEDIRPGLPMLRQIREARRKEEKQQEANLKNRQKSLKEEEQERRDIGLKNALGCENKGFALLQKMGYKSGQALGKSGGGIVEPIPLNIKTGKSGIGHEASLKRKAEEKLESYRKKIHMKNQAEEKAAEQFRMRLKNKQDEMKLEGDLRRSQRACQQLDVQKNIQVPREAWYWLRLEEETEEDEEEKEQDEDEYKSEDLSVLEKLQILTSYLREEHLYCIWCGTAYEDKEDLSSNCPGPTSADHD

As for AAUAAA, the Kd turned out to be 0.0325 µM with GPATCH11, 0.368 µM with PABPN1, 0.0112 µM with TIAL1 and 0.217 µM with ZRANB2.

Regarding CUGUCCU, the Kd in the series with MRPL1 came to 0.0804 µM; in the series with MRPL11 it was 0.0537 µM; with RPS5 it was 0.146 µM.

On to UAUUUAU, for which the Kd with MRPS28 was determined as 0.0159 µM; in the series with PPIE, 0.205 µM; with TRIM56, 2.88 µM.

Broadly, the Kd is the free concentration of one partner at which half of the binding sites on the other are occupied at equilibrium, for simple one-to-one binding. Low readings indicate higher affinity, high ones lower affinity.
